Test results reported in patent US6858210B1, “Therapeutic and diagnostic domain 1 β2GPI polypeptides and methods of using same” (La Jolla Pharmaceutical Co., priority 1998, dated 2005).
Residue numbers refer to the chain shown, from its start. In names and notes the source's numbering stands.

B1: 2D9: phage clone displaying β2GPI domain 1 mutant T3P (protein)
chain: GRPCPKPDDLPFSTVVPLKTFYEPGEEITYSCKPGYVSRGGMRKFICPLTGLWPINTLKCTPRVAEPVESCLAKPHTENSFTNVWKDDKTLDRYANYEGCLWNATGVVVCTGDETQCYGTWVPIGLAIPENEGGGSEGGGSEGGGSEGGGTKPPEYGDTPIPGYTYINPLDGTYPPGTEQNPANPNPSLEESQPLNTFMFQNNRFRNRQGALTVYTGTVTQGTDPVKTYYQYTPVSSKAMYDAYWNGKFRDCAFHSGFNEDPFVCEYQGQSSDLPQPPVNAGGGSGGGSGGGSEGGGSEGGGSEGGGSEGGGSGGGSGSGDFDYEKMANANKGAMTENADENALQSDAKGKLDSVATDYGAAIDGFIGDVSGLANGNGATGDFAGSNSQMAQVGDGDNSPLMNNFRQYLPSLPQSVECRPYVFGAGKPYEFSIDCDKINLFRGVFAFLLYVATFMYVFSTFANILRNKES
B2: B11: phage clone, domain 1 mutant M42K (protein)
chain: GRTCPKPDDLPFSTVVPLKTFYEPGEEITYSCKPGYVSRGGKRKFICPLTGLWPINTLKCTPRV
B3: 2D4: phage clone, domain 1 mutant M42T (protein)
chain: B2 chain with K42T
B4: 2C3: phage clone, domain 1 mutant P54S (protein)
chain: B2 chain with K42M, P54S
B5: 2D12: phage clone, domain 1 mutant F45L (protein)
chain: B2 chain with K42M, F45L

test system: human β2GPI-dependent antiphospholipid antibody; test: Micropanning of mutant domain 1 phage, patient antibodies; format: binding; settings: Table 7A, antibody 6501

| Molecule | μpan score |
| --- | --- |
| B1 | 3 |
| B2 | 3 |
| B3 | 2 |
| B4 | 1 |
| B5 | 3 |

same assay, conditions: Table 7A, antibody 6626

| Molecule | μpan score |
| --- | --- |
| B1 | 2 |
| B2 | 3 |
| B3 | 1 |
| B4 | 1 |
| B5 | 2 |

same assay, conditions: Table 7A, antibody 6701

| Molecule | μpan score |
| --- | --- |
| B1 | 3 |
| B2 | 3 |
| B3 | 3 |
| B4 | 1 |
| B5 | 2 |

same assay, conditions: Table 7B, antibody 6226

| Molecule | Micropan score |
| --- | --- |
| B1 | 4 |
| B2 | 4 |
| B3 | 3 |
| B4 | 2 |
| B5 | 4 |

same assay, conditions: Table 7B, antibody 6501

| Molecule | Micropan score |
| --- | --- |
| B1 | 4 |
| B2 | 4 |
| B3 | 4 |
| B4 | 2 |
| B5 | 4 |

same assay, conditions: Table 7B, antibody 6632

| Molecule | Micropan score |
| --- | --- |
| B1 | 3 |
| B2 | 4 |
| B3 | 4 |
| B4 | 3 |
| B5 | 4 |

same assay, conditions: Table 7B, antibody 6644

| Molecule | Micropan score |
| --- | --- |
| B1 | 4 |
| B2 | 4 |
| B3 | 4 |
| B4 | 3 |
| B5 | 4 |

same assay, conditions: Table 7B, antibody 6701

| Molecule | Micropan score |
| --- | --- |
| B1 | 4 |
| B2 | 4 |
| B3 | 4 |
| B4 | 2 |
| B5 | 2 |

same assay, conditions: Table 7B, antibody 7008

| Molecule | Micropan score |
| --- | --- |
| B1 | 4 |
| B2 | 4 |
| B3 | 4 |
| B4 | 3 |
| B5 | 4 |

test system: rabbit anti-human β2GPI; test: Micropanning of mutant domain 1 phage, rabbit antibody; format: binding; design: key: 0 (<10 colonies) to 4+ (confluent) semiquantitative colony score; settings: Table 7A, first (or only) value
Procedure: Error prone PCR was carried out as follows. Domain 1 of human β2GPI was amplified by PCR under conditions that enhance the error rate of Taq polymerase. The primers were such that amino acids 1-64 were amplified. A Sfc 1 restriction site was incorporated as part of amino acid 1. At the 3′ end a Sal 1 restriction site was incorporated after amino acid 64. The PCR reaction was done as described by Leung et al. (1989) Technique 1:11, using 0.25 mM MnCl2. The PCR product was digested with Sfc 1 and Sal 1 and cloned into fd-tet-DOG2 that had been digested with Apal 1 and Sal 1. This positions domain 1 at the N-terminus of pill immediately after the pill signal sequence. The ligation reaction was electroporated in E. coli K91. Phage were harvested and titered by standard methods. Resulting phage clones were assayed using a micropanning technique.
Immulon type 2 plates were coated with protein G. Protein G was prepared at 5 μg/mL in 0.1 M NaHCO3 and 100 μL per well was added to the wells of microtitration plates and incubated overnight at 4° C. After discarding excess protein G solution from plates, each well was blocked with 200 μL 2YT for 1 hour at RT with agitation on an oscillating platform. Tris-buffered saline, pH 7.4/0.5% Tween 20 (TBS/Tween), was used with an automatic plate washer to wash the wells 4 times with 200 μL. One hundred μL human β2GPI-dependent antiphospholipid 6626, 6501, 6701, rabbit β2GPI-dependent antiphospholipid, or control normal IgG, diluted to 2.5 μg/mL with 2YT, was added to washed wells. The plate was incubated for 1 hour at room temperature on a rotating platform.
Phage to be tested by micropanning were obtained from the agar plates generated by biopanning. Each clone to be tested was transferred using sterile toothpicks to a separate well of a round-bottom 96-well microtitration plate (Corning, Corning, N.Y.) containing 200 μL 2YT/Tet per well and cultured overnight at 30° C. Following overnight incubation, phage cultures were centrifuged using a microtitration plate holder at 1300×g for 10 minutes at room temperature. Supernatants constituted the source of “neat” phage. The neat phage were diluted 1: 100-1:1000 and 100 μL was added to the plate containing protein G-bound β2GPI-dependent antiphospholipid antibody-6501 and normal IgG prepared as described above. The incubation of dilute phage with aPL antibody or control IgG was carried out for 2 hours at room temperature on a flat rotator. After 9 washes with TBS/Tween in an automated plate washer, the IgG-bound phage was eluted with 20 μL of 0.2 N HCl-glycine/0.1% BSA, pH 2.2. The elution incubation continued for 10 minutes at RT, during which time a new Corning microtitration plate was prepared containing 20 μL of freshly starved E. coli per well and kept chilled. One hundred forty μL of 29 mM Tris was added to the plate containing the phage eluates in order to neutralize the pH, following which 20 μL of phage suspension was transferred from each well to the corresponding well in the plate containing starved E. coli. After a 10 minute incubation at 37° C., 200 μL 2YT was added and incubation carried out an additional 30 minutes at 37° C. Using multichannel pipettors, 8 μL from each well was spotted on a large 2YT/Tet agar plate while retaining the original 8×12 well pattern and orientation from the last microtitration plate. After allowing the spots to dry for 30 minutes, the plate was incubated overnight at 30° C. The following day, colonies were semiquantitatively scored from 0 to 4+, with 0 symbolizing <10 colonies; 1+=10-30; 2+=30 colonies to 70% confluent; 3+=70%-90% confluent; 4+=confluent.
For Table 7A, the rabbit anti-human β2GPI was performed on two separate occasions. Mutations are listed with the original amino acid, the position number, and the identity of the amino acid at that position in the mutant. […] Non-mutated domain 1 have a score of 3+, while domain 5 phage gave a score of −. Silent mutations are not shown. […]

| Molecule | μpan score |
| --- | --- |
| B1 | 2 |
| B2 | 3 |
| B3 | 3 |
| B4 | 3 |
| B5 | 3 |

same assay, conditions: Table 7A, second value (second occasion)

| Molecule | μpan score |
| --- | --- |
| B2 | 4 |

same assay, conditions: Table 7B, 1st column

| Molecule | Micropan score |
| --- | --- |
| B1 | 4 |
| B2 | 4 |
| B3 | 4 |
| B4 | 2 |
| B5 | 4 |

same assay, conditions: Table 7B, 2nd column

| Molecule | Micropan score |
| --- | --- |
| B1 | 4 |
| B2 | 4 |
| B3 | 4 |
| B4 | 4 |
| B5 | 4 |

same assay, conditions: Table 7B, 3rd column

| Molecule | Micropan score |
| --- | --- |
| B1 | 4 |
| B2 | 4 |
| B3 | 4 |
| B4 | 4 |
| B5 | 4 |

same assay, conditions: Table 7B, 4th column

| Molecule | Micropan score |
| --- | --- |
| B1 | 4 |
| B2 | 4 |
| B3 | 4 |
| B4 | 4 |
| B5 | 4 |
